Measured values: patent US20070086998A1

Molecular target: HLA-DR as expressed on the tumor cell line
Assay: cell-based or functional assay

Row | Binder | % Killing by mAb; ARH-77 (DR 12); 50 nM, 4 h [%] | % Killing by mAb; BJAB (DR 12,13); 50 nM, 4 h [%] | % Killing by mAb; BONNA-12; 50 nM, 4 h [%] | % Killing by mAb; DOHH-2 (DR 1,2); 50 nM, 4 h [%] | % Killing by mAb; EOL-1; 50 nM, 4 h [%] | % Killing by mAb; GRANTA-519 (DR 2,11); 50 nM, 4 h [%] | % Killing by mAb; HC-1; 50 nM, 4 h [%] | % Killing by mAb; HD-MY-Z; 50 nM, 4 h [%] | % Killing by mAb; HDLM-2; 50 nM, 4 h [%] | % Killing by mAb; KARPAS-299 (DR 1,2); 50 nM, 4 h [%] | % Killing by mAb; KARPAS-422 (DR 2,4); 50 nM, 4 h [%] | % Killing by mAb; KM-H2; 50 nM, 4 h [%] | % Killing by mAb; L1236; 50 nM, 4 h [%] | % Killing by mAb; L-363; 50 nM, 4 h [%] | % Killing by mAb; L-428 (DR 12); 50 nM, 4 h [%] | % Killing by mAb; LP-1; 50 nM, 4 h [%] | % Killing by mAb; MHH-CALL-4 (DR 1,2); 50 nM, 4 h [%] | % Killing by mAb; MHH-PREB-1; 50 nM, 4 h [%] | % Killing by mAb; MN-60 (DR 10,13); 50 nM, 4 h [%] | % Killing by mAb; NALM-1 (DR 1,4); 50 nM, 4 h [%] | further results
1 | MS-GPC-8-27-41 (IgG4 form) (antibody, V domains shown) VH: QVELKESGPALVKPTQTLTLTCTFSGFSLSTSGVGVGWIRQPPGKALEWLALIDWDDDKYYSTSLKTRLTISKDTSKNQVVLTMTNMDPVDTATYYCARSPRYRGAFDYWGQGTLVTVSS VL: DIVLTQPPSVSGAPGQRVTISCSGSESNIGNNYVQWYQQLPGTAPKLLIYDNNQRPSGVPDRFSGSKSGTSASLAITGLQSEDEADYYCQSYDMNVHVFGGGTKLTVLG | 85 | 71 | 92 | 59 | 69 | 78 | 93 | 69 | 88 | 82 | 66 | 86 | 63 | 26 | 91 | 73 | 63 | 4 | 69 | 82 | % Killing by mAb; RAJI (DR 10,17); 50 nM, 4 h: 84%; % Killing by mAb; RPMI-8226; 50 nM, 4 h: 29%; % Killing by mAb; SR-786 (DR 1,2); 50 nM, 4 h: 53%; killing of melanoma cell line WM 115: 21%
2 | MS-GPC-8-Fab (Fab, V domains shown) VH: QVQLKESGPALVKPTQTLTLTCTFSGFSLSTSGVGVGWIRQPPGKALEWLALIDWDDDKYYSTSLKTRLTISKDTSKNQVVLTMTNMDPVDTATYYCARSPRYRGAFDYWGQGTLVTVSS VL: DIVLTQPPSVSGAPGQRVTISCSGSSSNIGSNYVSWYQQLPGTAPKLLIYDNNQRPSGVPDRFSGSKSGTSASLAITGLQSEDEADYYCQSYDMPQAVFGGGTKLTVLG |  |  |  |  |  |  |  |  |  |  |  |  |  |  |  |  |  |  |  |  | maximum capacity to kill MHH-Call 4 cells: 65%
3 | MS-GPC-8-17 (Fab) (Fab, V domains shown) VH: QVQLKESGPALVKPTQTLTLTCTFSGFSLSTSGVGVGWIRQPPGKALEWLALIDWDDDKYYSTSLKTRLTISKDTSKNQVVLTMTNMDPVDTATYYCARSPRYRGAFDYWGQGTLVTVSS VL: DIVLTQPPSVSGAPGQRVTISCSGSSSNIGSNYVSWYQQLPGTAPKLLIYDNNQRPSGVPDRFSGSKSGTSASLAITGLQSEDEADYYCQSYDFSVYVFGGGTKLTVLG |  |  |  |  |  |  |  |  |  |  |  |  |  |  |  |  |  |  |  |  | maximum capacity to kill MHH-Call 4 cells: 78%
4 | MS-GPC-8-6 (Fab) (Fab, V domains shown) VH: QVQLKESGPALVKPTQTLTLTCTFSGFSLSTSGVGVGWIRQPPGKALEWLALIDWDDDKYYSTSLKTRLTISKDTSKNQVVLTMTNMDPVDTATYYCARSPRYRGAFDYWGQGTLVTVSS VL: DIVLTQPPSVSGAPGQRVTISCSGSSSNIGSNYVSWYQQLPGTAPKLLIYDNNQRPSGVPDRFSGSKSGTSASLAITGLQSEDEADYYCQSYDYDHYVFGGGTKLTVLG |  |  |  |  |  |  |  |  |  |  |  |  |  |  |  |  |  |  |  |  | maximum capacity to kill MHH-Call 4 cells: 76%
5 | MS-GPC-8-6-13 (IgG4 form) (antibody, V domains shown) VH: QVELKESGPALVKPTQTLTLTCTFSGFSLSTSGVGVGWIRQPPGKALEWLALIDWDDDKYYSTSLKTRLTISKDTSKNQVVLTMTNMDPVDTATYYCARSPRYRGAFDYWGQGTLVTVSS VL: DIVLTQPPSVSGAPGQRVTISCSGSESNIGANYVTWYQQLPGTAPKLLIYDNNQRPSGVPDRFSGSKSGTSASLAITGLQSEDEADYYCQSYDYDHYVFGGGTKLTVLG | 87 | 64 | 86 | 53 | 53 | 73 | 93 | 72 | 90 | 76 | 71 | 87 | 66 | 19 | 92 | 73 | 43 | 11 | 67 | 65 | % Killing by mAb; RAJI (DR 10,17); 50 nM, 4 h: 83%; % Killing by mAb; RPMI-8226; 50 nM, 4 h: 19%; % Killing by mAb; SR-786 (DR 1,2); 50 nM, 4 h: 26%
6 | MS-GPC-8-10-57 (IgG4 form) (antibody, V domains shown) VH: QVELKESGPALVKPTQTLTLTCTFSGFSLSTSGVGVGWIRQPPGKALEWLALIDWDDDKYYSTSLKTRLTISKDTSKNQVVLTMTNMDPVDTATYYCARSPRYRGAFDYWGQGTLVTVSS VL: DIVLTQPPSVSGAPGQRVTISCSGSESNIGNNYVQWYQQLPGTAPKLLIYDNNQRPSGVPDRFSGSKSGTSASLAITGLQSEDEADYYCQSYDLIRHVFGGGTKLTVLG | 88 | 67 | 91 | 60 | 49 | 78 | 86 | 57 | 84 | 79 | 68 | 88 | 66 | 24 | 91 | 70 | 46 | 8 | 66 | 78 | % Killing by mAb; RAJI (DR 10,17); 50 nM, 4 h: 86%; % Killing by mAb; RPMI-8226; 50 nM, 4 h: 26%; % Killing by mAb; SR-786 (DR 1,2); 50 nM, 4 h: 44%
